Assay results published in publication PMC10515849.

Target: long form of human LepR (LepRb), full length, on HEK293T cells (human) (UniProt P48357)
Assay: flow cytometry on cells

Sequence of UniProt P48357 (P48357 22-1165): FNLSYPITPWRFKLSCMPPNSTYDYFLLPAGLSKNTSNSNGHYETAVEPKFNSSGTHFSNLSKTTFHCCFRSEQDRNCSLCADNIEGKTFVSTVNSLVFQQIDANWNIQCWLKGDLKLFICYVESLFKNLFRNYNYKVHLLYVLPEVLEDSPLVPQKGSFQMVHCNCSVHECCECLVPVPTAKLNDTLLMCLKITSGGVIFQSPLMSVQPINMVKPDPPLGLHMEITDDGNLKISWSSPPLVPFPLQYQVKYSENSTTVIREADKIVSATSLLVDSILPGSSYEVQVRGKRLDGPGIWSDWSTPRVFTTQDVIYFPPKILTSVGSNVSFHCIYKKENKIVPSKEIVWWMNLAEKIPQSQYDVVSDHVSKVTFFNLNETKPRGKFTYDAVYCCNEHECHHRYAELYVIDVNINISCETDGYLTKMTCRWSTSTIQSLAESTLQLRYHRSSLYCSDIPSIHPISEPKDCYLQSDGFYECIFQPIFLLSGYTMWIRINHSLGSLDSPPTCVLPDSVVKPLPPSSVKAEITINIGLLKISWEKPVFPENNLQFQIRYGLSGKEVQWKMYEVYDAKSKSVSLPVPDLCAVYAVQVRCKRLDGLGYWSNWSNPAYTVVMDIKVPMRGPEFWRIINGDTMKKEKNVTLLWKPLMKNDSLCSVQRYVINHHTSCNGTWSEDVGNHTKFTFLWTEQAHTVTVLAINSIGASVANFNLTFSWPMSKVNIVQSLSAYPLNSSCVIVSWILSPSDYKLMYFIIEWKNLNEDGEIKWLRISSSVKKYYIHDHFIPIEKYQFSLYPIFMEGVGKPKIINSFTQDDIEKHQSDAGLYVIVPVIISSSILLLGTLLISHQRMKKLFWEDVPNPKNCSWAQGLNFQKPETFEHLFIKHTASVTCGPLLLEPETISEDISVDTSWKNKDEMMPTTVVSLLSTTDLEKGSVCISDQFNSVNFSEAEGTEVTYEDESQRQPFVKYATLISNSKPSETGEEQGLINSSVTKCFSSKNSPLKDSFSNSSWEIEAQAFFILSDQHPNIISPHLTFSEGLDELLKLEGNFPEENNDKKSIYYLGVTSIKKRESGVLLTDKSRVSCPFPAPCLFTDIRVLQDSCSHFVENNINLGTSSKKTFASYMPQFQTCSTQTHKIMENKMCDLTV

Kd: 2.2 nM
Substance: FITC-labeled rASRA (natural protein)
